In patent publication US20260125457A1 (Janssen / Centocor, published 2026):

Legend:
[1] = biological target: T1, CALRins5 (mutant calreticulin, 5 base pair insertion, Type 2) expressed with MPL on engineered cancer cells (UniProt P27797 18-417); assay: flow cytometry on ELF-153 MPL CALRins5 cells, 1 h at 37 C, AF647 secondary antibody, Geometric Mean
T1 construct: whole, on cells; On the cell surface in complex with MPL; also called OCI-M2 MPL CALRins5
T1 sequence (looked up): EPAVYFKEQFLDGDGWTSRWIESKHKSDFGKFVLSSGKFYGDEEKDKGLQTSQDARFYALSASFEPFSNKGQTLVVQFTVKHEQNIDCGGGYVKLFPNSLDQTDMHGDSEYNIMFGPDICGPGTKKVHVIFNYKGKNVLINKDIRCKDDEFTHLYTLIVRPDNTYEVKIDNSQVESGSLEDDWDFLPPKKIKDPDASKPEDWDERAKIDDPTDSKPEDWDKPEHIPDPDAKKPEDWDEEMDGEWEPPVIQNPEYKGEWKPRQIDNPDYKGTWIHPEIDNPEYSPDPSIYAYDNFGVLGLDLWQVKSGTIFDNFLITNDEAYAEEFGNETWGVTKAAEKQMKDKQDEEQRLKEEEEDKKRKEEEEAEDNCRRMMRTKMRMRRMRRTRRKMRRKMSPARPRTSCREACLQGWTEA
Description: FIGS. 4A-4F depict graphs of CALRmutxCD3 bispecific antibody C3CRB73 binding to cells CALRmut-negative or CALRmut-positive. Flow cytometry was used to evaluate C3CRB73 binding to CALRmut-negative and CALRmut-positive cancer cells in vitro. C3CRB73 and NullxCD3 control were tested on a panel of cell lines, engineered to express MPL and CALRmut, after 1 hour 37° C. incubation, with subsequent incubation with secondary AF647-labeled antibody. Geometric mean fluorescence intensity of AF647 was measured to determine antibody binding. […] Abbreviations: CALR, calreticulin; CALRmut, mutant calreticulin; CD, cluster of differentiation; del, deletion; ins, insertion; MPL, thrombopoietin receptor; spFv, stapled single chain fragment variable; wt, wild type.

[2] = biological target: T2, wild-type calreticulin (CALRwt) expressed with MPL in engineered cancer cells (UniProt P27797 18-417, limits assumed); assay: flow cytometry on OCI-M2 MPL CALRwt cells, 1 h at 37 C, AF647 secondary antibody, Geometric Mean
T2 construct: whole, on cells; also called OCI-M2 MPL CALRwt
T2 sequence (looked up): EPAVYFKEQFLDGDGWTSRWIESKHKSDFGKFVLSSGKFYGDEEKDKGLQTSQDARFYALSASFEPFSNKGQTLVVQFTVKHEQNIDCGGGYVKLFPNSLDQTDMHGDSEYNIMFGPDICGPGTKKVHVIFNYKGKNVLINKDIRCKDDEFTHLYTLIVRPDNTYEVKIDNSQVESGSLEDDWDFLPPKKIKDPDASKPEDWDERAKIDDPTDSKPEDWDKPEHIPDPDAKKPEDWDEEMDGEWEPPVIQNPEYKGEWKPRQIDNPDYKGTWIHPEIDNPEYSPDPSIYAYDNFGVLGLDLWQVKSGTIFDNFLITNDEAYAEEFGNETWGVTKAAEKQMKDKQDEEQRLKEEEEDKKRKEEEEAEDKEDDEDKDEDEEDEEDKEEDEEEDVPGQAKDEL

[3] = biological target: T1, CALRins5 (mutant calreticulin, 5 base …); assay: cell-based or functional assay
[4] = biological target: T3, CALRdel52 (mutant calreticulin, 52 base pair deletion, Type 1) expressed with MPL on engineered cancer cells (UniProt P27797 18-417); assay: cell-based or functional assay
T3 sequence (looked up): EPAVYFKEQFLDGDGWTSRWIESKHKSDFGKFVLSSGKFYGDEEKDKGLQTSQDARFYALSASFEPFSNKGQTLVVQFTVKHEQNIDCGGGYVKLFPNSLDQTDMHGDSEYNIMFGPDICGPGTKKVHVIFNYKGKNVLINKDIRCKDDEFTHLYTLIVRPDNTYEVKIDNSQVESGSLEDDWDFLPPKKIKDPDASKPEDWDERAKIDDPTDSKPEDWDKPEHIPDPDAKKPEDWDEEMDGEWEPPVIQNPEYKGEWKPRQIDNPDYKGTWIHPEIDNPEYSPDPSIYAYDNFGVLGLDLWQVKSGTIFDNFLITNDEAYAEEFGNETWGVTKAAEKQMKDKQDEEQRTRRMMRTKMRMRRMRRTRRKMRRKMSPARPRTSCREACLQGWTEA

[5] = biological target: T1, CALRins5 (mutant calreticulin, 5 base …); assay: flow cytometry on OCI-M2 MPL CALRins5 cells, 1 h at 37 C, AF647 secondary antibody, Geometric mean
Description: FIGS. 27A-27F depict binding of different CALRmutxCD3 antibodies to CALRmut-negative or CALRmut-positive cells. Flow cytometry was used to evaluate CALRmutxCD3 binding to CALRmut-negative and CALRmut-positive cancer cells in vitro. CALRmutxCD3 antibodies were tested on a panel of cell lines, engineered to express MPL and CALRmut, after 1 hour 37° C. incubation, with subsequent incubation with secondary AF647-labeled antibody. Geometric mean fluorescence intensity of AF647 was measured to determine antibody binding.

[6] = biological target: T4, CD3EG-HSA-6xHis (CD3W220.002) (human, UniProt P07766 22-118; P09693 23-103); assay: SPR, forced degradation: Thermal
T4 construct: also called human CD3; not shown: human serum albumin (HSA); 6xHis tag
T4 sequence (P07766 other isoform, or with tags, fused parts or gaps): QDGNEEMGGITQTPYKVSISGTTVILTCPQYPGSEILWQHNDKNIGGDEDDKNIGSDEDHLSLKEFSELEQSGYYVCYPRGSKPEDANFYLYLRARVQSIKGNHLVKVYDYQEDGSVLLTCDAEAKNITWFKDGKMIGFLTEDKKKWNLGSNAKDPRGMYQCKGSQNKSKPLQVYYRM

[7] = biological target: T5, Avi/his-CalR-Ins5 (CALRW28.004) (human, UniProt P27797 18-417, limits assumed); assay: SPR, forced degradation: Thermal
T5 construct: also called human CALRins5
T5 sequence (looked up): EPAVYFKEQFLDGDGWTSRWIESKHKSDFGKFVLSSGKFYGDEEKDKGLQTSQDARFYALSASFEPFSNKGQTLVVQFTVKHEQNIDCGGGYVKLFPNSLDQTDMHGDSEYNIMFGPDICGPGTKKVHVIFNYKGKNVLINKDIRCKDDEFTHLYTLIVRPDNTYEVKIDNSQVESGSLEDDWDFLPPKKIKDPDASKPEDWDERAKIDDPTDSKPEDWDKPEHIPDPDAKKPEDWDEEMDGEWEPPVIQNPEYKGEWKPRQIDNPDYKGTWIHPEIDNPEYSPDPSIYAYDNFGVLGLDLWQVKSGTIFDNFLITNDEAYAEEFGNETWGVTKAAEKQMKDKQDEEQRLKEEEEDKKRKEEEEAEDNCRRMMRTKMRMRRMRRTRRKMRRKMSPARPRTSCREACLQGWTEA

[8] = biological target: T6, Flag/6xhis-CALRdel52 (CALRW12.007) (human, UniProt P27797 18-417); assay: SPR, forced degradation: Thermal
T6 construct: also called human CALRdel52
T6 sequence (looked up): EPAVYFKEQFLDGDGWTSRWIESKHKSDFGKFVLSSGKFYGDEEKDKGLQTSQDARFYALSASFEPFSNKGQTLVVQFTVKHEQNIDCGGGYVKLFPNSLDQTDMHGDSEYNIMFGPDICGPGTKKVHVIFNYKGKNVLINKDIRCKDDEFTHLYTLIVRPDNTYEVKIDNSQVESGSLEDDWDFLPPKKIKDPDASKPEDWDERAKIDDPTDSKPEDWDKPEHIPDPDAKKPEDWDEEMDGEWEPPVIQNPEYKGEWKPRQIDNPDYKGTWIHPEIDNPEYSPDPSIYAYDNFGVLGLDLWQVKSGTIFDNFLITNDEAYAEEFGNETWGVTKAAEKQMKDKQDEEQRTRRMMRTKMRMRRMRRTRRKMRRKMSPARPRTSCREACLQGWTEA

human FcRn = biological target: T7, human FcRn (human, UniProt P55899 24-297; P61769 21-119, limits assumed); assay: FcRn binding, method not stated
T7 construct: Beta-2-microglobulin is not mentioned

cyno FcRn = cyno FcRn (cynomolgus monkey, UniProt Q8SPV9 24-297; Q8SPW0 21-119, limits assumed); assay: FcRn binding, method not stated
Chain of cyno FcRn (Q8SPV9 24-297 limits assumed, chain 1 of 2): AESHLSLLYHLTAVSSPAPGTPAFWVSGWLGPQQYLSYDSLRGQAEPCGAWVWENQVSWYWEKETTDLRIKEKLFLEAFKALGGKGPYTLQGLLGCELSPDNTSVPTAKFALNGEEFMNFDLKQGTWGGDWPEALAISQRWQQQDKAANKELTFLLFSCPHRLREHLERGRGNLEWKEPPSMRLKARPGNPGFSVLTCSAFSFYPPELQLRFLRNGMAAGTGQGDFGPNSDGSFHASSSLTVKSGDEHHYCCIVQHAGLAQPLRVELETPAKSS
Chain of cyno FcRn (Q8SPW0 21-119 limits assumed, chain 2 of 2): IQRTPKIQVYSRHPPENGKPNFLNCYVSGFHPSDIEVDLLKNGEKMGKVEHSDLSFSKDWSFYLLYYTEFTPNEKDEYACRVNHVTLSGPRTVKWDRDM

EC50 (read off the curve) [1]: ~4 nM | binding result [2]: no binding (tested: 100 nM) | % CD25+ CD8 T cells EC50 (nM), CALRmut patient blood, ELF-153 MPL CALRins5 [3]: 1.68 nM | % CD25+ CD8 T cells EC50 (nM), healthy donor blood, ELF-153 MPL CALRins5 [3]: 0.53 nM | % CD69+ CD8 T cells EC50 (nM), CALRmut patient blood, ELF-153 MPL CALRins5 [3]: 1.08 nM | % CD69+ CD8 T cells EC50 (nM), healthy donor blood, ELF-153 MPL CALRins5 [3]: 0.41 nM | % CD25+ CD8 T cells EC50 (nM), CALRmut patient blood, ELF-153 MPL CALRdel52 [4]: 2.46 nM | % CD25+ CD8 T cells EC50 (nM), healthy donor blood, ELF-153 MPL CALRdel52 [4]: 1 nM | % CD69+ CD8 T cells EC50 (nM), CALRmut patient blood, ELF-153 MPL CALRdel52 [4]: 3.06 nM | % CD69+ CD8 T cells EC50 (nM), healthy donor blood, ELF-153 MPL CALRdel52 [4]: 0.88 nM | EC50 (read off the curve) [5]: ~5 nM | % Active [6]: 94% | Kd [6]: 0.225 nM | % Active [7]: 94% | Kd [7]: 0.0357 nM | % Active [8]: 98% | Kd [8]: 0.0664 nM | Kd (human FcRn): 1900 nM | Kd (cyno FcRn): 900 nM
B1: C3CRB73 CALRmut x CD3 bispecific antibody (bispecific antibody, human IgG1, kappa, L234A L235A)
heavy: EVQLLESGGGLVQPGGSLRLSCAVSGIDLSNNAISWVRQAPGKGLEYVGVIGNTGDTYYADSAKGRFTISRDSSKTTLYLQMNSLRAEDTAVYFCVRGPPSYSSSVKNIWGQGTLVTVSSASTKGPSVFPLAPSSKSTSGGTAALGCLVKDYFPEPVTVSWNSGALTSGVHTFPAVLQSSGLYSLSSVVTVPSSSLGTQTYICNVNHKPSNTKVDKKVEPKSCDKTHTCPPCPAPEAAGGPSVFLFPPKPKDTLMISRTPEVTCVVVSVSHEDPEVKFNWYVDGVEVHNAKTKPREEQYNSTYRVVSVLTVLHQDWLNGKEYKCKVSNKALPAPIEKTISKAKGQPREPQVYTLPPSREEMTKNQVSLSCAVKGFYPSDIAVEWESNGQPENNYKTTPPVLDSDGSFFLVSKLTVDKSRWQQGNVFSCSVMHEALHNRFTQKSLSLSPGK
light: DIQMTQSPSSVSASVGDRVTITCQSSQSVYNNNWLSWLQQKPGKAPKRLIYDASKLESGVPSRFSGSGSGTDFTLTISSVQPEDAATYYCAGGFTGNVYTFGGGTKVEIKRTVAAPSVFIFPPSDEQLKSGTASVVCLLNNFYPREAKVQWKVDNALQSGNSQESVTEQDSKDSTYSLSSTLTLSKADYEKHKVYACEVTHQGLSSPVTKSFNRGEC
scFv: DIQMTQSPSSLSASVGDRVTITCRARQSIGTAIHWYQQKPGCAPKLLIKYASESISGVPSRFSGSGSGTDFTLTISSLQPEDFATYYCQQSGSWPYTFGQGTKLEIKGGGSGGSGGCPPCGGSGGEVQLVESGGGLVKPGGSLRLSCAASGFTFSRYNMNWVRQAPGKGLEWVSSISTSSNYIYYADSVKGRFTFSRDNAKNSLDLQMSGLRAEDTAIYYCTRGWGPFDYWGCGTLVTVSSEPKSSDKTHTCPPCPAPEAAGGPSVFLFPPKPKDTLMISRTPEVTCVVVSVSHEDPEVKFNWYVDGVEVHNAKTKPREEQYNSTYRVVSVLTVLHQDWLNGKEYKCKVSNKALPAPIEKTISKAKGQPREPQVYTLPPSREEMTKNQVSLWCLVKGFYPSDIAVEWESNGQPENNYKTTPPVLDSDGSFFLYSKLTVDKSRWQQGNVFSCSVMHEALHNHYTQKSLSLSPGK
notes: IgG1-AAS; also called JNJ-88549968; CALRB421 Fab x CD3 spFv
